Reference: paper PMC9669022

Assays:
[1] = molecular target: porcine brain tubulin (αβ-tubulin dimer) (porcine) (UniProt Q2XVP4)
[2] = molecular target: porcine brain tubulin (αβ-tubulin dimer) (porcine) (UniProt Q2XVP4); remark: listed apart in the source
[3] = molecular target: porcine brain tubulin (αβ-tubulin dimer) (porcine) (UniProt Q2XVP4); remark: listed apart in the source

## Pbkinesin-8B-MD (domain or fragment)
[1]
  Km of the MT-stimulated ATPase (GMPCPP-MTs, NADH-coupled assay): 2.5 µM
[2]
  Km of the tubulin-stimulated ATPase (unpolymerised tubulin dimer, NADH-coupled assay): 7.6 µM

## Pbkinesin-8B-MD-L2^KIF5B (domain or fragment)
[3]
  Km of the GMPCPP-MT-stimulated ATPase, fold change against WT: 2 fold

## Pbkinesin-8B-MD-L12^KIF5B (domain or fragment)
[3]
  KmMT of the GMPCPP-MT-stimulated ATPase, fold change against WT: 20 fold
